This note sets out measurements from patent US20240307439A1 (ARCELLX, published 2024).

In one assay the target is T1, BCMA-binding CAR (bc40).
T1 construct: D domain CAR on Jurkat reporter cells or T cells; The entry includes signal peptide and FLAG tag; also called BCMA-specific D domain CAR; CTsp-Flag-GSlinker-bc40-GSlinker-CD8H-TM-41BB-CD3ζ
Put plainly: flow cytometry, CAR-transduced Jurkat cells incubated with 0.5 µg Adapter, stained with anti-HIS PE.

The next assay deals with T2, CD123-Fc (Homo sapiens (Human), UniProt P26951 19-305).
T2 construct: not shown: Fc part not described
T2 sequence: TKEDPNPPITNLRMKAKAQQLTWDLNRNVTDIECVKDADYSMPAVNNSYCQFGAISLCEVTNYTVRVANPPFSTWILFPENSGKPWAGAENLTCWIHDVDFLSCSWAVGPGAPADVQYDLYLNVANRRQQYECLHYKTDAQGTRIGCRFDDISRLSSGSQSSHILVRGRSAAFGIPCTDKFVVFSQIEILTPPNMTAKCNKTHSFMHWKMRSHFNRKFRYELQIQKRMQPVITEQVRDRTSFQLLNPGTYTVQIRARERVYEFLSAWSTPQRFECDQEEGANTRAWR
Put plainly: flow cytometry, Adapter held on af03-CAR Jurkat cells, CD123-Fc detected with Anti-Fc A488. As for the experimental part: (§1) 10⁵ Jurkat NFAT-Luciferase transduced with an AFP (p26)-binding CAR (af03) were incubated with a total of 0.5 μg of Adapter proteins at various ratios of the BCMA- to CD123-specific Adapters (4° C. for 20 minutes), washed, and then incubated with CD123-Fc and biotinylated BCMA (0.5 μg of each) (4° C. for 20 minutes), washed, then binding detected with Anti-Fc A488 and Streptavidin-PE. FIG. 8A presents a flow cytometric analysis of CD123-binding and BCMA-binding to their respective target proteins, FIG. 8B provides a comparison of mean fluorescence intensity (MFI) of A488 MFI (CD123-binding, left axis) and PE MFI (BCMA-binding, right axis) flow cytometric data presented in FIG. 8A.
(§2) 10⁵ Jurkat NFAT-Luciferase transduced with a p26-binding CAR (af03, SEQ ID NO: 1092) were incubated with a total of […] of Adapters (SEQ ID NO: 1084, SEQ ID NO: 1085) at the indicated ratios at 4° C. for 20 minutes, washed, and then incubated with CD123-Fc and biotinylated BCMA (0.5 μg of each/(4° C. for 20 minutes), washed, then binding detected with Anti-Fc A488 and Streptavidin-PE. FIG. 8A presents a flow cytometric analysis of CD123-binding and BCMA-binding to their respective target proteins, FIG. 8B provides a comparison of mean fluorescence intensity (MFI) of A488 MFI (CD123-binding, left axis) and PE MFI (BCMA-binding, right axis) flow cytometric data presented in FIG. 8A.

The next assay has as its target T3, biotinylated BCMA (Homo sapiens (Human), UniProt Q02223 1-54, biotinylated).
T3 sequence: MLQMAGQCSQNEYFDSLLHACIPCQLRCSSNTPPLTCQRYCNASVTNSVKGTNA
Put plainly: flow cytometry, Adapter held on af03-CAR Jurkat cells, biotinylated BCMA detected with Streptavidin-PE. On the procedure: as §1, §2
(In general: In flow cytometry, cells or beads pass a laser one at a time.)

Assay [1] addresses T4, BCMA on tumor cells (NCI-H929, U266, MM.1S, NALM6-BCMA) (Homo sapiens (Human), UniProt Q02223 1-184).
T4 construct: also called BCMA+ tumor target
T4 sequence: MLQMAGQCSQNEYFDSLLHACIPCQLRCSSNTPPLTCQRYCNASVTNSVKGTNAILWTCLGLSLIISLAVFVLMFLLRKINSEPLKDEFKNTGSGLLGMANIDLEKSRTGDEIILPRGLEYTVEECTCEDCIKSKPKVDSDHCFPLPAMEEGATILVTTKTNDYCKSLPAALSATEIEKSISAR
Briefly: flow cytometry of NALM6-BCMA tumor cells flushed from femurs of mice after I.V. Adapter administration.

T1 sequence (chain, as listed by the source): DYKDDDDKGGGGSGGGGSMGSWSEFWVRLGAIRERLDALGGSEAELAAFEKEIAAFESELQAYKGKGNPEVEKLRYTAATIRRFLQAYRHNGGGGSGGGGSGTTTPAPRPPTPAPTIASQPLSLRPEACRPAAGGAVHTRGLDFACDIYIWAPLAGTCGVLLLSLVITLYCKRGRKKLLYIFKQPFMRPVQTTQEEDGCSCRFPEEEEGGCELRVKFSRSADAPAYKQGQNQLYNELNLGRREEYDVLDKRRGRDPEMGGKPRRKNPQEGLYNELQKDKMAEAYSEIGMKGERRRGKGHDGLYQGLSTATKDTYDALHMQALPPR

B1: α3D-BCMA Adapter (designed binder)
chain: DEGGGGSMGSWAEFKQRLAAIKTRLQALGGSEAELAAFEKEIAAFESELQAYKGKGNPEVEALRKEAAAIRDELQAYRHNGGGGSGGGGSGGGGSGMLQMAGQCSQNEYFDSLLHACIPCQLRCSSNTPPLTCQRYCNASVTNSVKGTNAGGGGSGGGGSGGGGSHHHHHHHHHH
notes: Soluble fusion: targetless α3D domain, linker, BCMA extracellular domain, HIS tag; also called none(α3D)-BCMA-HIS tag
Turning to B1, in the assay with BCMA-binding CAR (bc40), the binding result is recorded as “binds”.

B2: cg06-p26 Adapter (designed binder)
chain: DEHHHHHHHHHHKLENLYFQGGGGGSMGSWDEFGRRLYAIEWRLYALGGSEAELAAFEKEIAAFESELQAYKGKGNPEVEKLREIAAVIRSNLQAYRHNGGGGSGGGGSGGGGSLEKCFQTENPLECQDKGEEELQKYIQESQALAKRSCGLFQKLGEYYLQNAFLVAYTKKAPQLTSSELMAITRKMAATAATCCQLSEDKLLACGEGAADIIIGHLCIRHEMTPVNPGVGQCCTSSYANRRPCFSSLVVDETYVPPAFSDDKFIFHKDLCQAQGVALQTMKQEFLINLVKQKPQITEEQLEAVIADFSGLLEKCCQGQEQEVCFAEEGQKLISKTRAALGV
notes: Soluble fusion: HIS tag, cg06 D domain, linker, p26; also called cg06-AFP (p26) Adapter; CD123 (cg06)-AFP (p26) Adapter
For B2, the binding result with CD123-Fc is reported as “binds”.

B3: bc40-p26 Adapter (designed binder)
chain: DEHHHHHHHHHHKLENLYFQGGGGGSMGSWSEFWVRLGAIRERLDALGGSEAELAAFEKEIAAFESELQAYKGKGNPEVEKLRYTAATIRRFLQAYRHNGGGGSGGGGSGGGGSLEKCFQTENPLECQDKGEEELQKYIQESQALAKRSCGLFQKLGEYYLQNAFLVAYTKKAPQLTSSELMAITRKMAATAATCCQLSEDKLLACGEGAADIIIGHLCIRHEMTPVNPGVGQCCTSSYANRRPCFSSLVVDETYVPPAFSDDKFIFHKDLCQAQGVALQTMKQEFLINLVKQKPQITEEQLEAVIADFSGLLEKCCQGQEQEVCFAEEGQKLISKTRAALGV
notes: Soluble fusion: HIS tag, bc40 D domain, linker, full-length p26; also called bc40-AFP (p26) Adapter; HIS tag-BCMA(bc40)-p26
In the case of B3, in the assay with biotinylated BCMA, the binding result was “binds”.

B4: BCMA specific Adapter (bc98-p26-bc98) (designed binder)
chain: MGSWSEFWARLGAIRERLDALGGSEAELAAFEKEIAAFESELQAYKGKGNPEVEKLRYTAGTIKRFLQAYRHNGGGGDGGGGSGGGGSGLEKCFQTENPLECQDKGEEELQKYIQESQALAKRSCGLFQKLGEYYLQNAFLVAYTKKAPQLTSSELMAITRKMAATAATCCQLSEDKLLACGEGAADIIIGHLCIRHEMTPVNPGVGQCCTSSYANRRPCFSSLVVDETYVPPAFSDDKFIFHKDLCQAQGVALQTMKQEFLINLVKQKPQITEEQLEAVIADFSGLLEKCCQGQEQEVCFAEEGQKLISKTRAALGVGGGGSGGGGSGGGGSMGSWSEFWARLGAIRERLDALGGSEAELAAFEKEIAAFESELQAYKGKGNPEVEKLRYTAGTIKRFLQAYRHN
notes: also called SPRX-BCMA; sparX-BCMA
For the molecule B4, the binding result in assay [1] is recorded as “binds”.

B5: Cg06-BCMA Adapter (designed binder)
chain: DEMGSWDEFGRRLYAIEWRLYALGGSEAELAAFEKEIAAFESELQAYKGKGNPEVEKLREIAAVIRSNLQAYRHNGGGGSGGGGSGGGGSGMLQMAGQCSQNEYFDSLLHACIPCQLRCSSNTPPLTCQRYCNASVTNSVKGTNAGGGGSGGGGSGGGGSHHHHHHHHHH
notes: Soluble fusion: cg06 D domain, linker, BCMA extracellular domain, linker, HIS tag; also called CD123(cg06)-BCMS-HIS tag
As to B5, the binding result with BCMA-binding CAR (bc40) is “binds”.
